Consider 3 proteins from publication PMC7955032, “The amyloid structure of mouse RIPK3 (receptor interacting protein kinase 3) in cell necroptosis” (Nature Communications, 2021).

Data set [1] concerns the molecule itself. Description: solid-state NMR; MAS SSNMR of isotope-labelled fibrils, 700 MHz, 303 K, 15 kHz; structure calculated with Xplor-NIH for 5 copies of residues 441-460; intermolecular contacts from [2-13C]-glycerol labelled sample and from a 1:1 mix of 15N- and 13C-labelled protein.
Data set [2] concerns the molecule itself. The data set can be described thus: thioflavin T fluorescence of fibril growth; 2 mM protein in 6 M GudHCl diluted to 20 µM in 10 mM PB buffer pH 7.4, 50 µM ThT, room temperature, about 4 h.

B1: mouse RIPK3 409-486 Q449D (domain or fragment, UniProt Q9QZL0 409-486, looked up)
chain: GPHPQRNQGDGRHGTPWYPWTPPNPMTGPPALVFNNCSEVDIGNYNSLVAPPRTTASSSAKYDQAQFGRGRGWQPFHK
notes: RIPK3, mouse, residues 409-486, same construction as the SSNMR sample, with Q449D; Same construct as m1 with one substitution; source: E. coli Transetta (DE3), purified (Ni-NTA, reverse phase HPLC)
Turning to B1, in data set [1], the binding result is given as “binds”.

B2: mouse RIPK3 409-486 L456D (domain or fragment, UniProt Q9QZL0 409-486, looked up)
chain: GPHPQRNQGDGRHGTPWYPWTPPNPMTGPPALVFNNCSEVQIGNYNSDVAPPRTTASSSAKYDQAQFGRGRGWQPFHK
notes: RIPK3, mouse, residues 409-486, same construction as the SSNMR sample, with L456D; Same construct as m1 with one substitution; source: E. coli Transetta (DE3), purified (Ni-NTA, reverse phase HPLC)
With B2, the binding result in data set [1] is on record as “binds”.

B3: mouse RIPK3 409-486 F442D (domain or fragment, UniProt Q9QZL0 409-486, looked up)
chain: GPHPQRNQGDGRHGTPWYPWTPPNPMTGPPALVDNNCSEVQIGNYNSLVAPPRTTASSSAKYDQAQFGRGRGWQPFHK
notes: RIPK3, mouse, residues 409-486, same construction as the SSNMR sample, with F442D; Same construct as m1 with one substitution; source: E. coli Transetta (DE3), purified (Ni-NTA, reverse phase HPLC)
Turning to B3, the binding result in data set [2] is on record as “binds”.
